The labels stand for the following.
B1: POU domain, class 4, transcription factor 1, residues 266 to 347; numbered along this chain, Q01851 (parent)
chain: RELEAFAERFKQRRIKLGVTQADVGSALANLKIPGVGSLSQSTICRFESLTLSHNNMIALKPILQAWLEEAEGAQREKMNKP

± gives the uncertainty stated by the source.

The variants in this data set derive from B1. In words: abundance fitness (aPCA) (normalised: wild type 0, dead -1); higher = more abundant; growth selection in yeast, the domain comes from the species named. The conditions noted are these: Homo sapiens.
With RELEAFAERFKQRRIKLGVTQADVGSALANLKIPGVGSLSQSTICRFESLTLSHNNMIALKPILQAFLEEAEGAQREKMNKP [W67F], the abundance fitness came to 0.018 ± 0.15.
Then RELEAFAERFKQRRIKLGVTQADVGSALANLKIPGVGSLSQSTICRFESLTLSHNNMIALKPILQAELEEAEGAQREKMNKP [W67E], with -0.806 ± 0.13; and RELEAFAERFKQRRIKLGVTQADVGSALANLKIPGVGSLSQSTICRFESLTLSHNNMIALKPILQARLEEAEGAQREKMNKP [W67R], with -0.639 ± 0.073.
For RELEAFAERFKQRRIKLGVTQADVGSALANLKIPGVGSLSQSTICRFESLTLSHNNMIALKPILQAKLEEAEGAQREKMNKP [W67K], the abundance fitness was -0.606 ± 0.17.
As to RELEAFAERFKQRRIKLGVTQADVGSALANLKIPGVGSLSQSTICRFESLTLSHNNMIALKPILQATLEEAEGAQREKMNKP [W67T], the abundance fitness was -0.805 ± 0.18.
Then RELEAFAERFKQRRIKLGVTQADVGSALANLKIPGVGSLSQSTICRFESLTLSHNNMIALKPILQAVLEEAEGAQREKMNKP [W67V], with -0.412 ± 0.059; and RELEAFAERFKQRRIKLGVTQADVGSALANLKIPGVGSLSQSTICRFESLTLSHNNMIALKPILQADLEEAEGAQREKMNKP [W67D], with -0.425 ± 0.23.
To RELEAFAERFKQRRIKLGVTQADVGSALANLKIPGVGSLSQSTICRFESLTLSHNNMIALKPILQALLEEAEGAQREKMNKP [W67L] belongs -0.475 ± 0.069; to RELEAFAERFKQRRIKLGVTQADVGSALANLKIPGVGSLSQSTICRFESLTLSHNNMIALKPILQAALEEAEGAQREKMNKP [W67A], -0.406 ± 0.069.
Then RELEAFAERFKQRRIKLGVTQADVGSALANLKIPGVGSLSQSTICRFESLTLSHNNMIALKPILQAPLEEAEGAQREKMNKP [W67P], with -0.646 ± 0.11; and RELEAFAERFKQRRIKLGVTQADVGSALANLKIPGVGSLSQSTICRFESLTLSHNNMIALKPILQAGLEEAEGAQREKMNKP [W67G], with -0.727 ± 0.071.
For RELEAFAERFKQRRIKLGVTQADVGSALANLKIPGVGSLSQSTICRFESLTLSHNNMIALKPILQSWLEEAEGAQREKMNKP [A66S], the abundance fitness is -0.005 ± 0.031.
To RELEAFAERFKQRRIKLGVTQADVGSALANLKIPGVGSLSQSTICRFESLTLSHNNMIALKPILQYWLEEAEGAQREKMNKP [A66Y] belongs -0.104 ± 0.048; to RELEAFAERFKQRRIKLGVTQADVGSALANLKIPGVGSLSQSTICRFESLTLSHNNMIALKPILQVWLEEAEGAQREKMNKP [A66V], -0.12 ± 0.026.
To RELEAFAERFKQRRIKLGVTQADVGSALANLKIPGVGSLSQSTICRFESLTLSHNNMIALKPILQTWLEEAEGAQREKMNKP [A66T] belongs -0.012 ± 0.033.
As for RELEAFAERFKQRRIKLGVTQADVGSALANLKIPGVGSLSQSTICRFESLTLSHNNMIALKPILQWWLEEAEGAQREKMNKP [A66W], the abundance fitness is -0.192 ± 0.031.
Then RELEAFAERFKQRRIKLGVTQADVGSALANLKIPGVGSLSQSTICRFESLTLSHNNMIALKPILQAWLAEAEGAQREKMNKP [E69A], with -0.022 ± 0.048.
With RELEAFAERFKQRRIKLGVTQADVGSALANLKIPGVGSLSQSTICRFESLTLSHNNMIALKPILQAWLFEAEGAQREKMNKP [E69F], the abundance fitness is -0.174 ± 0.12.
Take RELEAFAERFKQRRIKLGVTQADVGSALANLKIPGVGSLSQSTICRFESLTLSHNNMIALKPILQAWLQEAEGAQREKMNKP [E69Q]: the abundance fitness is -0.018 ± 0.07.
In the case of RELEAFAERFKQRRIKLGVTQADVGSALANLKIPGVGSLSQSTICRFESLTLSHNNMIALKPILQAWLVEAEGAQREKMNKP [E69V], the abundance fitness was -0.073 ± 0.043.
To RELEAFAERFKQRRIKLGVTQADVGSALANLKIPGVGSLSQSTICRFESLTLSHNNMIALKPILQAWLSEAEGAQREKMNKP [E69S] belongs -0.054 ± 0.052; to RELEAFAERFKQRRIKLGVTQADVGSALANLKIPGVGSLSQSTICRFESLTLSHNNMIALKPILQAWLLEAEGAQREKMNKP [E69L], -0.036 ± 0.042; to RELEAFAERFKQRRIKLGVTQADVGSALANLKIPGVGSLSQSTICRFESLTLSHNNMIALKPILQAWLCEAEGAQREKMNKP [E69C], -0.168 ± 0.07.
On to RELEAFAERFKQRRIKLGVTQADVGSALANLKIPGVGSLSQSTICRFESLTLSHNNMIALKPILQAWLYEAEGAQREKMNKP [E69Y], for which the abundance fitness was -0.171 ± 0.19.
RELEAFAERFKQRRIKLGVTQADVGSALANLKIPGVGSLSQSTICRFESLTLSHNNMIALKPILQAWLTEAEGAQREKMNKP [E69T]: the abundance fitness was -0.085 ± 0.07.
For the variant RELEAFAERFKQRRIKLGVTQADVGSALANLKIPGVGSLSQSTICRFESLTLSHNNMIALKPILQAWLHEAEGAQREKMNKP [E69H], the abundance fitness is -0.076 ± 0.092.
To RELEAFAERFKQRRIKLGVTQADVGSALANLKIPGVGSLSQSTICRFESLTLSHNNMIALKPILQAWLGEAEGAQREKMNKP [E69G] belongs -0.207 ± 0.043.
As for RELEAFAERFKQRRIKLGVTQADVGSALANLKIPGVGSLSQSTICRFESLTLSHNNMIALKPILQAWLREAEGAQREKMNKP [E69R], the abundance fitness was -0.111 ± 0.038.
To RELEAFAERFKQRRIKLGVTQADVGSALANLKIPGVGSLSQSTICRFESLTLSHNNMIALKPILQAWLNEAEGAQREKMNKP [E69N] belongs -0.022 ± 0.08; to RELEAFAERFKQRRIKLGVTQADVGSALANLKIPGVGSLSQSTICRFESLTLSHNNMIALKPILQAWLKEAEGAQREKMNKP [E69K], -0.036 ± 0.06.
With RELEAFAERFKQRRIKLGVTQADVGSALANLKIPGVGSLSQSTICRFESLTLSHNNMIALKPILQAWLWEAEGAQREKMNKP [E69W], the abundance fitness is -0.224 ± 0.056.
Then RELEAFAERFKQRRIKLGVTQADVGSALANLKIPGVGSLSQSTICRFESLTLSHNNMIALKPILQAWLPEAEGAQREKMNKP [E69P], with -0.612 ± 0.14; and RELEAFAERFKQRRIKLGVTQADVGSALANLKIPGVGSLSQSTICRFESLTLSHNNMIALKPILQAWLIEAEGAQREKMNKP [E69I], with 0.056 ± 0.11.
Then RELEAFAERFKQRRIKLGVTQADVGSALANLKIPGVGSLSQSTICRFESLTLSHNNMIALKPILQAWLDEAEGAQREKMNKP [E69D], with 0.011 ± 0.088.

The record behind these values is the Human Domainome abundance scans (Beltran et al. 2025).
